According to publication PMC5934628:
Read-outs that look alike come from different tables or passages of the source.

T1: VAL1-B3 wt (C-terminal His6) (Arabidopsis thaliana, UniProt Q8W4L5 288-397)
T1 sequence: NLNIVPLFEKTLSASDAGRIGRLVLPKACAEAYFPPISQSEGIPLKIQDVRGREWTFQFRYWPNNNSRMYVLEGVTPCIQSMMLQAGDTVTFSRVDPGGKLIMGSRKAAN

T2: VAL1-B3 R306A (Arabidopsis thaliana, UniProt Q8W4L5 288-397, R306A)
T2 sequence: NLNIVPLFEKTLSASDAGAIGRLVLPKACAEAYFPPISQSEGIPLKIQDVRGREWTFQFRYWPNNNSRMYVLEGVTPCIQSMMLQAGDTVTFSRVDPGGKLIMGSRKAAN

T3: VAL1-B3 N352A (Arabidopsis thaliana, UniProt Q8W4L5 288-397, N352A)
T3 sequence: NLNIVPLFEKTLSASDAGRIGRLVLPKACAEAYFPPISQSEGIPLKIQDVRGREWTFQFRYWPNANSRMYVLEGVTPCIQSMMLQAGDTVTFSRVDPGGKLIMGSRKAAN

T4: VAL1-B3 Q345R (Arabidopsis thaliana, UniProt Q8W4L5 288-397, Q345R)
T4 sequence: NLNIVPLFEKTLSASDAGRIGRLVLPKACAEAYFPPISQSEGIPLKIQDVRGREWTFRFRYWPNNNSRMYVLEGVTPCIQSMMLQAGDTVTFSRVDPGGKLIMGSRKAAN

T5: VAL1-B3 I307A (Arabidopsis thaliana, UniProt Q8W4L5 288-397, I307A)
T5 sequence: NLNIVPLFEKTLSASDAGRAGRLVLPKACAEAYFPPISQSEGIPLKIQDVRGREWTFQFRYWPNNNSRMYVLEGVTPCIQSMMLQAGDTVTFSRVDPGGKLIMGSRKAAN


Tests used:
Test in all cases: EMSA
[1] = target: T1, VAL1-B3 wt (C-terminal His6)
[2] = target: T1, VAL1-B3 wt (C-terminal His6); remark: listed apart in the source
VAL1-B3 R306A = target: T2, VAL1-B3 R306A
VAL1-B3 N352A = target: T3, VAL1-B3 N352A
VAL1-B3 Q345R = target: T4, VAL1-B3 Q345R
VAL1-B3 I307A = target: T5, VAL1-B3 I307A
[3] = target: T1, VAL1-B3 wt (C-terminal His6); remark: listed apart in the source

Row | Binder | binding result [1] | further results
1 | 12/12_6A (dsDNA) DNA 1: CGGTGCATAGCT DNA 2: AGCTATGCACCG | no binding | 
2 | 12/12_1A (dsDNA) DNA 1: CGGAGCATGGCT DNA 2: AGCCATGCTCCG | no binding | 
3 | 12/12_4T (dsDNA) DNA 1: CGGTGCTTGGCT DNA 2: AGCCAAGCACCG | no binding | 
4 | 12/12_5A (dsDNA) DNA 1: CGGTGCAAGGCT DNA 2: AGCCTTGCACCG | no binding | 
5 | 12/12_6T (dsDNA) DNA 1: CGGTGCATTGCT DNA 2: AGCAATGCACCG | no binding | 
6 | 12/12_5C (dsDNA) DNA 1: CGGTGCACGGCT DNA 2: AGCCGTGCACCG | no binding | 
7 | 12/12_2C (dsDNA) DNA 1: CGGTCCATGGCT DNA 2: AGCCATGGACCG | no binding | 
8 | 12/12_3T (dsDNA) DNA 1: CGGTGTATGGCT DNA 2: AGCCATACACCG | no binding | 
9 | 12/12_2A (dsDNA) DNA 1: CGGTACATGGCT DNA 2: AGCCATGTACCG | no binding | 
10 | 12/12_6C (dsDNA) DNA 1: CGGTGCATCGCT DNA 2: AGCGATGCACCG | no binding | 
11 | 12/12SP (dsDNA) DNA 1: CGGTGCATGGCT DNA 2: AGCCATGCACCG |  | Kd [2]: ~3000 nM; binding result (VAL1-B3 R306A): no binding; binding result (VAL1-B3 N352A): binds; binding result (VAL1-B3 Q345R): binds; binding result (VAL1-B3 I307A): binds
12 | 12/12_1C (dsDNA) DNA 1: CGGCGCATGGCT DNA 2: AGCCATGCGCCG | no binding | 
13 | 12/12SP_2 (dsDNA) DNA 1: CGCTGCATGCCT DNA 2: AGGCATGCAGCG |  | binding result [3]: binds
14 | 12/12_3A (dsDNA) DNA 1: CGGTGAATGGCT DNA 2: AGCCATTCACCG | no binding | 
15 | 12/12_2T (dsDNA) DNA 1: CGGTTCATGGCT DNA 2: AGCCATGAACCG | no binding | 
